Test results taken from patent publication US20210070833A1 (GI INNOVATION, published 2021).

T1: mouse IgE (mouse, UniProt P06336 1-421)
T1 heavy (looked up): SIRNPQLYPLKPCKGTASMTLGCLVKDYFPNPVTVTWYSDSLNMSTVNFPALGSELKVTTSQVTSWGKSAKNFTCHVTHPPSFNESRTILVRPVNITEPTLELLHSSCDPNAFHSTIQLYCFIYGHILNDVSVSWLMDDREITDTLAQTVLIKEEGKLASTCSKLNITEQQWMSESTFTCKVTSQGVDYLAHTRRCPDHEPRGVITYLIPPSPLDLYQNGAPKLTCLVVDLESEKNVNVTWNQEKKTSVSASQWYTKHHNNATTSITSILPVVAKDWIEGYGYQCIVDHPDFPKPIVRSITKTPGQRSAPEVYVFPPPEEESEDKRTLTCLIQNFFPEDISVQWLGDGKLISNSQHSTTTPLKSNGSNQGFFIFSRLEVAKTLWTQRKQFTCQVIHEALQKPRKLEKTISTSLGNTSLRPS

T2: human IgE (human, UniProt P01854-1 1-428)
T2 heavy (looked up): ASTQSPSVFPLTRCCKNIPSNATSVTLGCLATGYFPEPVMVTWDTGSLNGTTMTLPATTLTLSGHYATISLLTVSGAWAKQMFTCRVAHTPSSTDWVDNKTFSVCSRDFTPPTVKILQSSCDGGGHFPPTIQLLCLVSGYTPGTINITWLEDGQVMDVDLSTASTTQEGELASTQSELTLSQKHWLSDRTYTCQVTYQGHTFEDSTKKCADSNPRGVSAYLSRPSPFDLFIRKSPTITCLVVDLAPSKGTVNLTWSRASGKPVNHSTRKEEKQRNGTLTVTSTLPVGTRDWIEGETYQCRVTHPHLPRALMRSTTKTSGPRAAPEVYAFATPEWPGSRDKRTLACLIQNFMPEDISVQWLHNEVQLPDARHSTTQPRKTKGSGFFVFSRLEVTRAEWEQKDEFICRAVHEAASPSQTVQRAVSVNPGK

T3: FcγRI
T3 construct: not in the MOLECULES list; also called IgG receptor FcγRI; Fc gamma receptor I
T3 chain: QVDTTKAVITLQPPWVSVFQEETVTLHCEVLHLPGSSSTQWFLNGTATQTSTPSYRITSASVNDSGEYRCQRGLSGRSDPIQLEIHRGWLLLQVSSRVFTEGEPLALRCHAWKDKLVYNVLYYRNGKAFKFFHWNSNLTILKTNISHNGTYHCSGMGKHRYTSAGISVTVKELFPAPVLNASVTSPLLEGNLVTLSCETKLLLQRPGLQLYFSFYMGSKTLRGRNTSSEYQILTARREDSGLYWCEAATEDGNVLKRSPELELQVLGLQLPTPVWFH

B1: FcεRIαECD-Fc2 (Fc fusion)
chain: VPQKPKVSLNPPWNRIFKGENVTLTCNGNNFFEVSSTKWFHNGSLSEETNSSLNIVNAKFEDSGEYKCQHQQVNESEPVYLEVFSDWLLLQASAEVVMEGQPLFLRCHGWRNWDVYKVIYYKDGEALKYWYENHNISITNATVEDSGTYYCTGKVWQLDYESEPLNITVIKAPREKYWLQRNTGRGGEEKKGSKEKEEQEERETKTPECPSHTQPLGVFLFPPKPKDTLMISRTPEVTCVVVDVSQEDPEVQFNWYVDGVEVHNAKTKPREEQFNSTYRVVSVLTVLHQDWLNGKEYKCKVSNKGLPSSIEKTISKAKGQPREPQVYTLPPSQEEMTKNQVSLTCLVKGFYPSDIAVEWESNGQPENNYKTTPPVLDSDGSFFLYSRLTVDKSRWQEGNVFSCSVMHEALHNHYTQKSLSLSLGK
B2: FcεRIαECD-Fc2ST (Fc fusion)
chain: B1 chain
modifications: sialic acid added (co-expressed with α-2,6-sialic acid transferase)
notes: also called IgETRAP; FcεRIαECD-Fc2 + a2,6-ST

Legend:
mouse IgE = target: T1, mouse IgE; assay: cell-based or functional assay
IgE = target: T4, IgE; assay: SPR (ProteOn XPR36), KD against omalizumab as reference; the same paragraph ties 69-fold to FcεRIαECD-Fc2ST
T4 construct: also called immunoglobulin E
Procedure: The experiments were conducted by identifying zero base using 25 mM NaOH as a regeneration buffer, and then repeating the above steps. Thereafter, a binding curve was identified using a protein binding analyzer (ProteOn XPR36, Bio-Rad Laboratories, Inc., USA).

human IgE = target: T2, human IgE; assay: cell-based or functional assay
FcγRI = target: T3, FcγRI; assay: BLI (Octet RED384), FcγRI immobilised on AR2G biosensor, IgETRAP 0.25-4 µM in solution
Procedure: FcγRI, FcγRIIA, FcγRIIB, FcγRIIIA, and FcγRIIIB recombinant proteins (R & D Systems Inc., 5 μg/ml) were immobilized in 300 mM acetate buffer (pH 5) on the activated AR2G biosensor. As a running buffer, PBS containing 0.1% Tween-20 and 1% bovine serum was used. All experiments were carried out at 30° C. with a sample plate shaker at a rate of 1,000 rpm.

| Binder | mast cell inhibition ratio (β-hexosaminidase release, mouse bone marrow-derived mast cells) at 0.5 ug/mL (mouse IgE) | mast cell inhibition ratio (β-hexosaminidase release, mouse bone marrow-derived mast cells) at 1 ug/mL (mouse IgE) | fold difference of KD against omalizumab (printed as 'higher') (IgE) | IC50 of mast cell inhibition (β-hexosaminidase release, human FcεRI-expressing mouse bone marrow-derived mast cells) (human IgE) | inhibitory ability on mast cell activity, fold against Xolair (human IgE) | binding result (FcγRI) |
| --- | --- | --- | --- | --- | --- | --- |
| B1 | ~49.4% | ~99.4% | – | – | – | – |
| B2 | – | – | 22 to 69 fold | ~0.0112 µg/mL | 58 fold | no binding (tested: 4 µM) |
